Reference: the nanobody polyreactivity screen of Harvey et al. (2022)

Assay: yeast display, Sf9 membrane polyspecificity reagent, FACS + sequencing; frameworks hold sequencing errors
In short: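 In a synthetic yeast display library (Saccharomyces cerevisiae BJ5465), nanobody expression was induced with galactose for 36–48 hours. FACS gates were set low and high (top ~1%) using anti-HA fluorescence for expression and streptavidin fluorescence for binding of the Sf9 membrane reagent. Each polyreactivity label is drawn from the gate of origin.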

Row | Sequence | polyreactivity (PSR sort gate)
1 | QVQLVESGGGLVQAGGSLRLSCAASGLTYNRYTMGWYRQAPGKERELVAAITSSGSTYYADSVKGRFTISRDNAKYTVYLQMNSLKPEDTAVYYCNTVYYDWFHYDYWGQGTQVTVSS | high polyreactivity
2 | QVQLVESGGGLVQAGGSLRLSCAASGRILGAYAMGWYRQAPGKERELVASISSGGRTYYADSVKGRFTISRDNAKNTVYLQMNSLKPEDTAVYYCNRDRNSGFYRRYGYWGQGTQVTVSS | high polyreactivity
3 | QVQLVESGGGLVQAGGSLRLSCAASGRTFSGYAMVWYRQAPGKERELVAAISSGGGSTYYADSVKGRFTISRDNAKNTVYLQMNSLKPEDTAVYYCAADGYPGDYDYWGQGTQVTVSS | low polyreactivity
4 | QVQLVESGGGLVQAGGSLRLTCAASGRIFAPKAMGWYRQAPGKERELVAGISSGGSTNYADSVKGRFTISRDNAKNTVYLQMNSLTPEDSAVYYCATGSYSYHRGYVTYARYGYWGQGTLVTVSS | low polyreactivity
5 | QGQLGESGGGLVQAGGSLRLSCAASGSIFPEYDMGWYRQAPGNERELDAAISWSGGSTYYADSVKGRFTISRANAKNTVSLQRNSLKPVDTAVYYCNRVPSWRIDYDYWGQGTQVSVSS | low polyreactivity
6 | QVQLVESGGGLVQAGGSLRLSCAASGITFWSNAMGWYRQAPGKERELVAAITSSGGSTYYADSVKGRFTISRDNAKNNVYLQMNSLKPEDTAVYYCAAPISRSAGWDSYDYWGQGTQVTVSS | low polyreactivity
7 | QVQLVESGGGLVQAGGSLRLSCAASGRTFGLNAMGWYRQAPGKERELVAAITSGGSTYYADSVKGRFTISRDNAKNTVYLQMNSLKPEDTAVYYCAARYWRSYGISDILSDVDYWGQGTQVTVSS | low polyreactivity
8 | QVQLVESGGGLVQAGGSLRLSCAASGSIFVGHAMGWYRQAPGKERELVATISRSGGSTYYADSVKGRFTISRDNAKNTVYLQMNSLKPEDTAVYYCAKTPYRRYSYGGYTYRTYDYWGQGTQVTVSS | low polyreactivity
9 | QVQLVESGGGLVQAGGSLRLSCAASGFIFKIYAMGWYRQAPGKERELVAAMSSGDNTNYADSVKGRFTISRDNAKNTVYLQMNSLKPEDTAVYYCAADWSPTAASDYWGQGTQVTVSS | high polyreactivity
10 | QVHLVESGGGLVQSGGSLRLSCAASGRIFYYNAMGWYRQAPGKERELVAAITSSSGSSTYYADSVKGRFTISRDNAKNTVYLQMNSLKPEDTAVYYCAADATFIIRYLSRSDYWGQGTQVTVSS | low polyreactivity
11 | QVQLVESGGGLVQAGGSLRLSCAASGFIFYSNAMGWYRQAPGKERELVAAISRGGGSTYYADSVKGRFTISRDNAKNTVYLQMNSLKPEDTAVYYCAKRRLSPQDDYWGQGTQVTVSS | high polyreactivity
12 | QVQLVESGGGLVQAGGSLRLSCAAYGSTFNGNAMGWYRQAPGKERELVARISFDGTSTYYADSVKGRFTISRDNAKNTVYLQMNSLKPEDTAVYYCNVMFPRDHGFPGYGYWGQGTQVTVSS | low polyreactivity
13 | QVQLVESGGGLVQAGGSLRLSCAASGSTFSYYAMGWYRQAPGKERELVAAITSGGRTKYADSVKGRFTISRDNAKNTVYLQMNSLKPEDTAVYYCAKRIEKFSGSLAGRWYDYWGQGTQVTVSS | high polyreactivity
14 | QVQLVESGGGLVQAGGSLRLSCAASGFIFPVYTMGWYRQAPGKERELVAAITQIGGSTHYADSVTGRFTISRDNAKNTVYLQMNSLKPEDTAVYYCNAVPSYGTEYDYWGQGTQVTVSS | low polyreactivity
15 | QVQLVESGGGLFQAGGSLRLSCAASGLIIAYYAMRWYRQAPGKERELVAAISSVGSTYYADSVNGRFTISRDNAKNTVYLQMNSLKPEDTAVYYCAAAPRGGMYYWGQGTQVTVSS | high polyreactivity
16 | QVQLVESGGGLVQAGGSLRLSCAASGRTFVYYVMGWYRQAPGKERELVAGISRGGSTDYADSVKGRFTISRDNAKNTVYLQMNSLKPEDTAVYYCNRLLRRHLYIFYYWGQGTQVTVSS | high polyreactivity

Row | Sequence | polyreactivity (PSR sort gate)
17 | QVQLQESGGGLVQAGGILRLSCAACGNIFPSAVMGWYRQALAKEREFVATINSGSNTYYADSVKGRFTISRDNAKNTVYLQMNSLKLEDTAVYYCAAYFKLQAWHTYWGQGTQVTVSS | low polyreactivity
18 | QVQLVESGGGLVQAGGSLRLSCAASGSIFSYYAMGWYRQAPGKERELVAAISWSGTSTYYADSVKGRFTISRDNAKNTVYLQMNSLKPEDTAVYYCNAGDNPIFDLGQGTQVTVSS | high polyreactivity
19 | QVQLVESGGGLVQAGGSLRLSCAASGSIFDSYAMGWYRQAPGKERELVASISSDGGGTYYADSVKGRFTISRDNAKNTVYLQMNSLKPEDTAVYYCARTRTYNSRTMDYWGQGTQVTVSS | low polyreactivity
20 | QVQLVESGGGLVQAGGSLRLSCAASGRIFYRNAMGWYRQAPGKERELVAAINWSGGSTYYADSVKGRFTISRDNAKNTVYLQMNSLKPEDTAVYYCATGYRQGEYDYWGQGTQVTVSS | low polyreactivity
21 | QVQLVESGGGLVQPGGRLRLSCEASGIFTDYAMGCYRQEPGKERELVAAISWRGGSTYFADSVKGRFTISRDNAKKTVYLQMHSLKPEDTAVFYCAAGVRGGGGRYRYGYWGQGTQVTVSS | high polyreactivity
22 | QVQLVESGGGLVQAGGSLRLSCAASGSTFQWYAMGWYRQAPGKERELVAAITKSGGSTYYADSVKGRFTISRDNAKNTVYLQMNSLKPEDTAVYYCAAGFWYYATEYDYWGQGTQVTVSS | low polyreactivity
23 | QVQLVESGGGLFQAGGSLRLSCAASGNTFRRNTMGWYRQAPPKERELVATISWRGGKTFYADSVKGRFTISRDNAKNTVYLQMNSLKPEDTAVYYCAADTRTQTYIYGYWGQGTQVTVSS | high polyreactivity
24 | QVQLVESGGGLVQAGGSLRLSCAASGSTFPWYAMGWYRQAPGKERELVAAISFSGGSTYYADSVKGRFTISRDNAKNTVYFQMNSLKPEDTAVYYCAAVWGYVIWVDTAVYREYDYWGQGTQVTVSS | high polyreactivity
25 | QVQLVESGGGLVQAGGSLRLSCAASGLSSLRMLWDGIDRRLGKKGSWLPLITSGGDSTNYADSVKGRFTISRDNAKNTVYLQMNSLKPEDTAVYYCAADLDYPYGYWGQGTQVTVSS | low polyreactivity
26 | QVQLVESGGGLVQAGGSLRLSCPASGSNLSRYAMGWYRQAPGKERELVAGITWRGGSTYYADSVKGRFTISRDNAKNTVYLQMNSLKPEDTAVYYCARRYGGYKWVRAYYYWGQGTQVTLSS | high polyreactivity
27 | QDQLVESGGGLVQAGGSLRLSCAASGSTFKVYAMGWYRQAPGKERELVAAISASDCSTYYADSVKGRFTISRDNAKNTVYLQMNILKAEDTAVYYCNAAYPEWYAYDYWGQGTQVTVSS | low polyreactivity
28 | QVQLVDSGGGLVQSGGILRLSCAASGRTFRYYAMGSYRQAPGKERELVAAISSGGSTNYADSVKGRFTISRDNAKNTVYLQMNSLKPEDTAVYYCAALWSGNKFKYWGQGSQVTVSS | low polyreactivity
29 | QVQIVESGRGLVQAGGSLRLSCAPSGRIFIYNAMGWYIQAPGKERELVAAISWRGGRTYYADSVKGRFTISRDNAKNTVYLQMNRLKPEDTAVYYCNAEPYGYERLYDYWGQGTQVNVSS | high polyreactivity
30 | QVQLVESGGGLVQAGGILRLSCAASGFTFGRYAMGRSRQAPGKEREFVAAISYTGTSTYYADSVKGRFTISRDNAKNTVYLQMNSRNPEDTAVYYCNAKWRSHYTQWSYDYWGQCTQVTVSS | high polyreactivity
31 | QVQLVESGGGLVQAGGSLRLTCAASGRIFPYYAMGWYRQAPGKEREFVAAITSSGSRTYYADSVKGRFTISRDNAKNNVYLQMNSLKPEDTAVYYCAVAYRLLYYYWGQGTQVTVSS | high polyreactivity
32 | QVQLVESGGGLVQAGGSLRLSCAASGSTSQRYSMGWYRQAPAKEREVVAGITTSGGRTYYADSVKGRFTISRDNAKNTVYLQMNSLKPEDTAVYYCAARTQIWKYRGYYSWGQGTQVTVSS | high polyreactivity
